The target of this test is MBP-FhtR (faecalis heme transport regulator fused to the maltose binding protein) (Enterococcus faecalis OG1RF). The experiment in a line: SEC; 40 uM apo- or holo- (hemin-complexed) MBP-FhtR in 100 ul loaded on Superdex 200 Increase 10/300 GL; 20 mM HEPES (pH 7), 300 mM NaCl; read at OD280 and OD410. (In general: Size exclusion chromatography separates by hydrodynamic size, large species first.)

A word on the stoichiometry N: it is a count of units in the complex or per binding partner.

Consider “MBP-FhtR (faecalis heme transport regulator fused to the maltose binding protein) (natural protein)”, for which the stoichiometry N was 2.

Source of the values: article PMC7858072.
